Test results taken from patent publication US6551840B2, “Method of screening TGF-β-inhibiting substances” (Chugai Seiyaku Kabushiki Kaisha, priority 1997, dated 2003).

Experiments:
[1] = molecular target: T1, binding between TAK1 and TAB1 (Homo sapiens, UniProt O43318); assay: Immunoprecipitation and Western analysis binding-inhibition study using synthetic peptides; set-up: dose or concentration left out as unconfirmed; details: COS-7 cell extracts with TAK1-6×His or FLAG-TAB1; compared to no peptide
T1 construct: amino acid Met at amino acid position 1 to amino acid Ser at amino acid position 579; made in house; host or cells: COS-7 cells transfected with pCOS-TAK1 or pCOS-FTAB1; unpurified cell extracts
T1 sequence (O43318 1-579 isoform O43318-2): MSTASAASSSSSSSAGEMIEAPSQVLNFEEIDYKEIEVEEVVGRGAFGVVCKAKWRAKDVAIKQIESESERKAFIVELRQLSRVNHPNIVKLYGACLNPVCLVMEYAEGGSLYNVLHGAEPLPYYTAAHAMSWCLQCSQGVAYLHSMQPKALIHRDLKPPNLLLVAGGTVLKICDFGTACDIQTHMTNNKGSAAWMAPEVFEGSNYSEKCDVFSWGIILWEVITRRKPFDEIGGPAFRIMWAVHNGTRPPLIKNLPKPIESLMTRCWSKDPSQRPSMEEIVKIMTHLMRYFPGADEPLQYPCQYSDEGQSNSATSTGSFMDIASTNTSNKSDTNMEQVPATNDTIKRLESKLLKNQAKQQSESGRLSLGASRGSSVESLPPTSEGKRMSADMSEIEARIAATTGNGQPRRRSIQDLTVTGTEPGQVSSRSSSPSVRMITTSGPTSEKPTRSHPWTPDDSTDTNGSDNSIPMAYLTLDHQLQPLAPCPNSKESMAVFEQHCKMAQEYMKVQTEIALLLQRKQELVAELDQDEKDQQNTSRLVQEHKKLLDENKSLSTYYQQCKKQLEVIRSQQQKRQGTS
From the text: The fact that a synthetic peptide containing the amino acid sequence identified as the TAK1 binding region can inhibit binding between TAK1 and TAB1 was confirmed by the following experiment. Thus, a peptide TAB1C-1 (SEQ ID NO: 40) comprising 16 amino acid residues containing the TAK1 binding region of TAB1 described in the above Example and a control peptide TAB1C-2 (SEQ ID NO: 41) containing an amino acid sequence from Gln at position 437 to Gln at position 451 of TAB1 were each synthesized, and were evaluated for their effects on the binding between TAK1 and TAB1. The TAK1 and TAB1 used in the present invention were prepared in the following manner. […]
Subsequently, cell extracts each containing TAK1-6×His or FLAG-TAB1 and a 5 mM synthetic peptide were mixed to a final concentration of […], respectively, and then incubated overnight at 4° C. It was then immunoprecipitated using anti-TAK1 antibody, and the amount of bound TAK1 and TAB1 was evaluated by determining the amount of TAB1 that coprecipitated by Western analysis. […] After it was blocked using a TBS solution containing 5% BSA, TAK1 in the immunoprecipitate was detected using anti-TAK1 antibody (manufactured by SantaCruz) and the coprecipitataed FLAG-TAB1 was detected using anti-FLAG M2 antibody (manufactured by Kodak). […]

[2] = molecular target: T2, human TAK1-6×His polypeptide (Homo sapiens, UniProt O43318); assay: ELISA in vitro binding-evaluation system: MBP-TAB1C-FLAG on immobilized TAK1-6×His; details: 100 ng TAK1-6×His per well; no increase where TAK1-6×His was not immobilized
T2 construct: amino acid Met at amino acid position 1 to amino acid Ser at amino acid position 579; made in house; host or cells: Sf9 insect cells, recombinant baculovirus
T2 sequence (O43318 1-579 isoform O43318-2): T1 sequence (O43318 1-579 isoform O43318-2)
From the text: Using the purified product obtained as above an ELISA system was constructed to detect in vitro an interaction between the recombinant human TAB1 polypeptide or the recombinant MBP-TAB1C-FLAG polypeptide and the recombinant human-TAK1 polypeptide. In the ELISA system it is intended to contact the recombinant human TAB1-FLAG polypeptide or the human MBP-TAB1C-FLAG polypeptide to a 96-well immunoplate to which the human TAK1-6×His polypeptide had been previously immobilized and thereby to detect the recombinant human TAB1-FLAG polypeptide or the recombinant MBP-TAB1C-FLAG polypeptide using a primary and secondary antibody.
(1) The purified product of human TAK1-6×His polypeptide was diluted in the immobilization buffer (0.1 M NaHCO3, 0.02% NaN3, pH 9.6). To each well of a 96-well immunoplate (manufactured by Nunc) was added 100 μl each of the diluted aqueous solution (equivalent to 100 ng of the human TAK1-6×His polypeptide), and the plate was incubated overnight at 4° C. […]
After each well was washed five times with the wash buffer, 100 μl of the color development solution (the substrate buffer; p-nitrophenyl phosphate dissolved to 1 mg/ml in 50 mM NaHCO3, 10 mM MgCl21 pH 9.8, manufactured by Sigma) was added to each well and was incubated at room temperature, and then absorbance at 405 nm was determined using a microplate reader (Model 3550, manufactured by BIO-RAD).

[3] = molecular target: T3, binding between the recombinant MBP-TAB1C-FLAG polypeptide and the recombinant TAK1 polypeptide (Homo sapiens, UniProt O43318); assay: ELISA binding-inhibition study with TAB1-FLAG as inhibiting substance; details: serially diluted TAB1-FLAG added together with MBP-TAB1C-FLAG
T3 construct: amino acid Met at amino acid position 1 to amino acid Ser at amino acid position 579; made in house; host or cells: TAK1-6xHis: Sf9/baculovirus; MBP-TAB1C-FLAG: E. coli periplasm (pMAL-p2)
T3 sequence (O43318 1-579 isoform O43318-2): T1 sequence (O43318 1-579 isoform O43318-2)
Description: It was investigated whether the recombinant human TAB1-FLAG polypeptide used as an inhibiting substance inhibits binding between the recombinant MBP-TAB1C-FLAG polypeptide and the recombinant TAK1 polypeptide.
In a similar manner to that in the above 5-1 (2), the recombinant human TAK1-6×His polypeptide was immobilized and was blocked. Then the recombinant human TAB1-FLAG polypeptide that was serially diluted in the dilution buffer was added as a binding-inhibiting substance to each well together with 16.5 μl each of the recombinant MBP-TAB1C-FLAG polypeptide and incubated.

“TAB1C-1: peptide comprising 16 amino acid residues containing the TAK1 binding region of TAB1 (SEQ ID NO: 40) (CVEPYVDFAEFYRGRK; OTHER INFORMATION: Description of Artificial Sequence: Synthetic peptide)” was tested, and the “effect on binding between TAK1 and TAB1: amount of coprecipitated FLAG-TAB1” value [1] was “a decrease in the amount of coprecipitated FLAG-TAB1 was observed”.

“TAB1C-2: control peptide containing an amino acid sequence from Gln at position 437 to Gln at position 451 of TAB1 (SEQ ID NO: 41) (CQSPTLTLQSTNTHTQ; OTHER INFORMATION: Description of Artificial Sequence: Synthetic peptide)” was tested, and the “effect on binding between TAK1 and TAB1: amount of coprecipitated FLAG-TAB1” value [1] was “no decrease in binding between TAK1 and TAB1 was observed”.

B1: MBP-TAB1C-FLAG: fusion polypeptide of 81 amino acids at the carboxy terminal of human TAB1 and maltose-binding protein, with FLAG tag (protein)
chain: ASTLDEATPTLTNQSPTLTLQSTNTHTQSSSSSSDGGLFRSRPAHSLPPGEDGRVEPYVDFAEFYRLWSVDHGEQSVVTAPDYKDDDDK
modifications: left off: large carriers
For B1, the “binding to immobilized human TAK1-6×His polypeptide, absorbance at 405 nm” value [2] was “absorbance increased depending on the concentration”.

B2: TAB1-FLAG: full-length human TAB1 with a FLAG tag added to the carboxy terminal (SEQ ID NO: 11) (protein)
chain: MAAQRRSLLQSEQQPSWTDDLPLCHLSGVGSASNRSYSADGKGTESHPPEDSWLKFRSENNCFLYGVFNGYDGNRVTNFVAQRLSAELLLGQLNAEHAEADVRRVLLQAFDVVERSFLESIDDALAEKASLQSQLPEGVPQHQLPPQYQKILERLKTLEREISGGAMAVVAVLLNNKLYVANVGTNRALLCKSTVDGLQVTQLNVDHTTENEDELFRLSQLGLDAGKIKQVGIICGQESTRRIGDYKVKYGYTDIDLLSAAKSKPIIAEPEIHGAQPLDGVTGFLVLMSEGLYKALEAAHGPGQANQEIAAMIDTEFAKQTSLDAVAQAVVDRVKRIHSDTFASGGERARFCPRHEDMTLLVRNFGYPLGEMSQPTPSPAPAAGGRVYPVSVPYSSAQSTSKTSVTLSLVMPSQGQMVNGAHSASTLDEATPTLTNQSPTLTLQSTNTHTQSSSSSSDGGLFRSRPAHSLPPGEDGRVEPYVDFAEFYRLWSVDHGEQSVVTAPGTGGSDYKDDDDK
modifications: C-terminal FLAG tag
In the case of B2, the “inhibition of binding between MBP-TAB1C-FLAG and TAK1-6×His, absorbance” value [3] is reported as “decrease in absorbance dependent on the concentration”.
